# Measurements published in paper PMC12835413, “Allosteric zinc inhibition and interdomain regulation govern the catalytic mechanism of the E3-independent ubiquitin-conjugating enzyme hUBE2O” (The Journal of Biological Chemistry, 2025).
# Target: the molecule itself
# Assay: SEC-MALS; 100 ul of 2 mg/ml purified Flag-UBE2O-TwinStrep on Superdex 200 Increase 5/150 GL; 50 mM Tris-HCl pH 7.4, 200 mM NaCl, 0.5 mM TCEP
protein,measurement,value
"Flag-UBE2O-TwinStrep (purified recombinant Homo sapiens UBE2O) (enzyme, human, UniProt Q9C0C9 1-1292, looked up, Homo sapiens UBE2O (ubiquitin-conjugating enzyme E2O), UniProt Q9C0C9, from plasmid pLV-Flag-hUBE2O-TS; also called hUBE2O; Flag-hUBE2O-TwinStrep; source: Expi293F cells, purified; not shown: Flag, N-terminal, kept) MADPAAPTPAAPAPAQAPAPAPEAVPAPAAAPVPAPAPASDSASGPSSDSGPEAGSQRLLFSHDLVSGRYRGSVHFGLVRLIHGEDSDSEGEEEGRGSSGCSEAGGAGHEEGRASPLRRGYVRVQWYPEGVKQHVKETKLKLEDRSVVPRDVVRHMRSTDSQCGTVIDVNIDCAVKLIGTNCIIYPVNSKDLQHIWPFMYGDYIAYDCWLGKVYDLKNQIILKLSNGARCSMNTEDGAKLYDVCPHVSDSGLFFDDSYGFYPGQVLIGPAKIFSSVQWLSGVKPVLSTKSKFRVVVEEVQVVELKVTWITKSFCPGGTDSVSPPPSVITQENLGRVKRLGCFDHAQRQLGERCLYVFPAKVEPAKIAWECPEKNCAQGEGSMAKKVKRLLKKQVVRIMSCSPDTQCSRDHSMEDPDKKGESKTKSEAESASPEETPDGSASPVEMQDEGAEEPHEAGEQLPPFLLKEGRDDRLHSAEQDADDEAADDTDDTSSVTSSASSTTSSQSGSGTSRKKSIPLSIKNLKRKHKRKKNKITRDFKPGDRVAVEVVTTMTSADVMWQDGSVECNIRSNDLFPVHHLDNNEFCPGDFVVDKRVQSCPDPAVYGVVQSGDHIGRTCMVKWFKLRPSGDDVELIGEEEDVSVYDIADHPDFRFRTTDIVIRIGNTEDGAPHKEDEPSVGQVARVDVSSKVEVVWADNSKTIILPQHLYNIESEIEESDYDSVEGSTSGASSDEWEDDSDSWETDNGLVEDEHPKIEEPPIPPLEQPVAPEDKGVVISEEAATAAVQGAVAMAAPMAGLMEKAGKDGPPKSFRELKEAIKILESLKNMTVEQLLTGSPTSPTVEPEKPTREKKFLDDIKKLQENLKKTLDNVAIVEEEKMEAVPDVERKEDKPEGQSPVKAEWPSETPVLCQQCGGKPGVTFTSAKGEVFSVLEFAPSNHSFKKIEFQPPEAKKFFSTVRKEMALLATSLPEGIMVKTFEDRMDLFSALIKGPTRTPYEDGLYLFDIQLPNIYPAVPPHFCYLSQCSGRLNPNLYDNGKVCVSLLGTWIGKGTERWTSKSSLLQVLISIQGLILVNEPYYNEAGFDSDRGLQEGYENSRCYNEMALIRVVQSMTQLVRRPPEVFEQEIRQHFSTGGWRLVNRIESWLETHALLEKAQALPNGVPKASSSPEPPAVAELSDSGQQEPEDGGPAPGEASQGSDSEGGAQGLASASRDHTDQTSETAPDASVPPSVKPKKRRKSYRSFLPEKSGYPDIGFPLFPLSKGFIKSIRGVLTQFRAALLEAGMPECTEDK",stoichiometry N,2
